# B1: human FHR-1 (natural protein, UniProt Q03591 19-330, looked up)
# chain: EATFCDFPKINHGILYDEEKYKPFSQVPTGEVFYYSCEYNFVSPSKSFWTRITCTEEGWSPTPKCLRLCFFPFVENGHSESSGQTHLEGDTVQIICNTGYRLQNNENNISCVERGWSTPPKCRSTDTSCVNPPTVQNAHILSRQMSKYPSGERVRYECRSPYEMFGDEEVMCLNGNWTEPPQCKDSTGKCGPPPPIDNGDITSFPLSVYAPASSVEYQCQNLYQLEGNKRITCRNGQWSEPPKCLHPCVISREIMENYNIALRWTAKQKLYLRTGESAEFVCKRGYRLSSRSHTLRTTCWDGKLEYPTCAKR
# notes: human factor H-related protein 1 (FHR-1); also called hFHR-1
# Molecular target: the molecule itself
# Test: AUC; sedimentation velocity, 48000 rpm, protein in PBS pH 7; c(s) distributions with SEDFIT; dimer to monomers
protein,measurement,value
B1,stoichiometry N,2
